From US20250262210A1 (TRUSTEES OF COLUMBIA UNIVERSITY IN THE CITY OF NEW YORK, published 2025)

Assays:
Experiment in all cases: IP/MS, LZTR1 R810W-FLAG, U87
[1] = biological target: T1, ZCCHC6 (human, UniProt Q5VYS8 1-1495, limits assumed)
T1 sequence (looked up): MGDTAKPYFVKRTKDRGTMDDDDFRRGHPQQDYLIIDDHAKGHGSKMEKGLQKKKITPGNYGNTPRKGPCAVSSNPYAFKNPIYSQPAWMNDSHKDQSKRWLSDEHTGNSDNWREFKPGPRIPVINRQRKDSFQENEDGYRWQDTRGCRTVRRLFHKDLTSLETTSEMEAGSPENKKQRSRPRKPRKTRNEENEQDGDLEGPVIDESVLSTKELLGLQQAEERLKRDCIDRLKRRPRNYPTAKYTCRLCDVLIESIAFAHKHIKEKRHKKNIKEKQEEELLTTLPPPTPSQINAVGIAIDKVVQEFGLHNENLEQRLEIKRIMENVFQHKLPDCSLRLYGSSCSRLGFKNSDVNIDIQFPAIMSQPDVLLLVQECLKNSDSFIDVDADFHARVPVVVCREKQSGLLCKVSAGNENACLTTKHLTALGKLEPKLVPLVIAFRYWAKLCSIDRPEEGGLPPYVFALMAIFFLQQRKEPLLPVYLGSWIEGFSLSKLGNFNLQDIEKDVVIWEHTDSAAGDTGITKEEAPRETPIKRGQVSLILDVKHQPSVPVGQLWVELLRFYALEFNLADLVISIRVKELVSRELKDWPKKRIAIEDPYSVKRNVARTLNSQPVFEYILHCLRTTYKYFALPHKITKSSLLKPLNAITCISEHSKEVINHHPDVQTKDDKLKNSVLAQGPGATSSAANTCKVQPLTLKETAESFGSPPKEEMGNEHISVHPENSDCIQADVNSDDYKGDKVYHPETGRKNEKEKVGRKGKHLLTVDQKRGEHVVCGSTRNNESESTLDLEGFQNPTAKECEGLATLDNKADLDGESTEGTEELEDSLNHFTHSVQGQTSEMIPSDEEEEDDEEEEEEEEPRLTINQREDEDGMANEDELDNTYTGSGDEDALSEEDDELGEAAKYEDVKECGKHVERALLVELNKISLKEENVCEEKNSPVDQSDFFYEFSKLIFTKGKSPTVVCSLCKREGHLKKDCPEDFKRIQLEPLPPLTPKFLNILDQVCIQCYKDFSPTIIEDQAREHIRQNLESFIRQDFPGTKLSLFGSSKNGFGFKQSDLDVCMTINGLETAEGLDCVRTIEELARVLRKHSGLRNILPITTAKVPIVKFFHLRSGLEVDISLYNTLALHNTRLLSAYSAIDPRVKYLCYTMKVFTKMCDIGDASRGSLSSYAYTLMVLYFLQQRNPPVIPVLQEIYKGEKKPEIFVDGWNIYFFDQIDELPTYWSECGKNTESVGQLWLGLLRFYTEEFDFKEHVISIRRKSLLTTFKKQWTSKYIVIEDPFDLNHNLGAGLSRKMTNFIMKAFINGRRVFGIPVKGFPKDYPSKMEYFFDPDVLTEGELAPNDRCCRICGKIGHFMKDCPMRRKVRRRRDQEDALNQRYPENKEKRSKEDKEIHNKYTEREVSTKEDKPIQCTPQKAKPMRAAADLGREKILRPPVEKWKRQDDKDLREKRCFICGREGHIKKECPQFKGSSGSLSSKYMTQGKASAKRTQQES
How it was run: (§1)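 Gel slices were reduced with 5 mM DTT, alkylated with 11 mM IAA and digested overnight at 37° C. with trypsin. Peptides were analysed on an Orbitrap Fusion Tribrid by LC-MS/MS.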

[2] = biological target: ARFGEF1 (human, UniProt Q9Y6D6 1-1849)
How it was run: as §1

[3] = biological target: RNF213 (human, UniProt Q63HN8 1-5207, limits assumed)
How it was run: as §1

Measured: binding result

Sequence of RNF213 (Q63HN8 whole entry): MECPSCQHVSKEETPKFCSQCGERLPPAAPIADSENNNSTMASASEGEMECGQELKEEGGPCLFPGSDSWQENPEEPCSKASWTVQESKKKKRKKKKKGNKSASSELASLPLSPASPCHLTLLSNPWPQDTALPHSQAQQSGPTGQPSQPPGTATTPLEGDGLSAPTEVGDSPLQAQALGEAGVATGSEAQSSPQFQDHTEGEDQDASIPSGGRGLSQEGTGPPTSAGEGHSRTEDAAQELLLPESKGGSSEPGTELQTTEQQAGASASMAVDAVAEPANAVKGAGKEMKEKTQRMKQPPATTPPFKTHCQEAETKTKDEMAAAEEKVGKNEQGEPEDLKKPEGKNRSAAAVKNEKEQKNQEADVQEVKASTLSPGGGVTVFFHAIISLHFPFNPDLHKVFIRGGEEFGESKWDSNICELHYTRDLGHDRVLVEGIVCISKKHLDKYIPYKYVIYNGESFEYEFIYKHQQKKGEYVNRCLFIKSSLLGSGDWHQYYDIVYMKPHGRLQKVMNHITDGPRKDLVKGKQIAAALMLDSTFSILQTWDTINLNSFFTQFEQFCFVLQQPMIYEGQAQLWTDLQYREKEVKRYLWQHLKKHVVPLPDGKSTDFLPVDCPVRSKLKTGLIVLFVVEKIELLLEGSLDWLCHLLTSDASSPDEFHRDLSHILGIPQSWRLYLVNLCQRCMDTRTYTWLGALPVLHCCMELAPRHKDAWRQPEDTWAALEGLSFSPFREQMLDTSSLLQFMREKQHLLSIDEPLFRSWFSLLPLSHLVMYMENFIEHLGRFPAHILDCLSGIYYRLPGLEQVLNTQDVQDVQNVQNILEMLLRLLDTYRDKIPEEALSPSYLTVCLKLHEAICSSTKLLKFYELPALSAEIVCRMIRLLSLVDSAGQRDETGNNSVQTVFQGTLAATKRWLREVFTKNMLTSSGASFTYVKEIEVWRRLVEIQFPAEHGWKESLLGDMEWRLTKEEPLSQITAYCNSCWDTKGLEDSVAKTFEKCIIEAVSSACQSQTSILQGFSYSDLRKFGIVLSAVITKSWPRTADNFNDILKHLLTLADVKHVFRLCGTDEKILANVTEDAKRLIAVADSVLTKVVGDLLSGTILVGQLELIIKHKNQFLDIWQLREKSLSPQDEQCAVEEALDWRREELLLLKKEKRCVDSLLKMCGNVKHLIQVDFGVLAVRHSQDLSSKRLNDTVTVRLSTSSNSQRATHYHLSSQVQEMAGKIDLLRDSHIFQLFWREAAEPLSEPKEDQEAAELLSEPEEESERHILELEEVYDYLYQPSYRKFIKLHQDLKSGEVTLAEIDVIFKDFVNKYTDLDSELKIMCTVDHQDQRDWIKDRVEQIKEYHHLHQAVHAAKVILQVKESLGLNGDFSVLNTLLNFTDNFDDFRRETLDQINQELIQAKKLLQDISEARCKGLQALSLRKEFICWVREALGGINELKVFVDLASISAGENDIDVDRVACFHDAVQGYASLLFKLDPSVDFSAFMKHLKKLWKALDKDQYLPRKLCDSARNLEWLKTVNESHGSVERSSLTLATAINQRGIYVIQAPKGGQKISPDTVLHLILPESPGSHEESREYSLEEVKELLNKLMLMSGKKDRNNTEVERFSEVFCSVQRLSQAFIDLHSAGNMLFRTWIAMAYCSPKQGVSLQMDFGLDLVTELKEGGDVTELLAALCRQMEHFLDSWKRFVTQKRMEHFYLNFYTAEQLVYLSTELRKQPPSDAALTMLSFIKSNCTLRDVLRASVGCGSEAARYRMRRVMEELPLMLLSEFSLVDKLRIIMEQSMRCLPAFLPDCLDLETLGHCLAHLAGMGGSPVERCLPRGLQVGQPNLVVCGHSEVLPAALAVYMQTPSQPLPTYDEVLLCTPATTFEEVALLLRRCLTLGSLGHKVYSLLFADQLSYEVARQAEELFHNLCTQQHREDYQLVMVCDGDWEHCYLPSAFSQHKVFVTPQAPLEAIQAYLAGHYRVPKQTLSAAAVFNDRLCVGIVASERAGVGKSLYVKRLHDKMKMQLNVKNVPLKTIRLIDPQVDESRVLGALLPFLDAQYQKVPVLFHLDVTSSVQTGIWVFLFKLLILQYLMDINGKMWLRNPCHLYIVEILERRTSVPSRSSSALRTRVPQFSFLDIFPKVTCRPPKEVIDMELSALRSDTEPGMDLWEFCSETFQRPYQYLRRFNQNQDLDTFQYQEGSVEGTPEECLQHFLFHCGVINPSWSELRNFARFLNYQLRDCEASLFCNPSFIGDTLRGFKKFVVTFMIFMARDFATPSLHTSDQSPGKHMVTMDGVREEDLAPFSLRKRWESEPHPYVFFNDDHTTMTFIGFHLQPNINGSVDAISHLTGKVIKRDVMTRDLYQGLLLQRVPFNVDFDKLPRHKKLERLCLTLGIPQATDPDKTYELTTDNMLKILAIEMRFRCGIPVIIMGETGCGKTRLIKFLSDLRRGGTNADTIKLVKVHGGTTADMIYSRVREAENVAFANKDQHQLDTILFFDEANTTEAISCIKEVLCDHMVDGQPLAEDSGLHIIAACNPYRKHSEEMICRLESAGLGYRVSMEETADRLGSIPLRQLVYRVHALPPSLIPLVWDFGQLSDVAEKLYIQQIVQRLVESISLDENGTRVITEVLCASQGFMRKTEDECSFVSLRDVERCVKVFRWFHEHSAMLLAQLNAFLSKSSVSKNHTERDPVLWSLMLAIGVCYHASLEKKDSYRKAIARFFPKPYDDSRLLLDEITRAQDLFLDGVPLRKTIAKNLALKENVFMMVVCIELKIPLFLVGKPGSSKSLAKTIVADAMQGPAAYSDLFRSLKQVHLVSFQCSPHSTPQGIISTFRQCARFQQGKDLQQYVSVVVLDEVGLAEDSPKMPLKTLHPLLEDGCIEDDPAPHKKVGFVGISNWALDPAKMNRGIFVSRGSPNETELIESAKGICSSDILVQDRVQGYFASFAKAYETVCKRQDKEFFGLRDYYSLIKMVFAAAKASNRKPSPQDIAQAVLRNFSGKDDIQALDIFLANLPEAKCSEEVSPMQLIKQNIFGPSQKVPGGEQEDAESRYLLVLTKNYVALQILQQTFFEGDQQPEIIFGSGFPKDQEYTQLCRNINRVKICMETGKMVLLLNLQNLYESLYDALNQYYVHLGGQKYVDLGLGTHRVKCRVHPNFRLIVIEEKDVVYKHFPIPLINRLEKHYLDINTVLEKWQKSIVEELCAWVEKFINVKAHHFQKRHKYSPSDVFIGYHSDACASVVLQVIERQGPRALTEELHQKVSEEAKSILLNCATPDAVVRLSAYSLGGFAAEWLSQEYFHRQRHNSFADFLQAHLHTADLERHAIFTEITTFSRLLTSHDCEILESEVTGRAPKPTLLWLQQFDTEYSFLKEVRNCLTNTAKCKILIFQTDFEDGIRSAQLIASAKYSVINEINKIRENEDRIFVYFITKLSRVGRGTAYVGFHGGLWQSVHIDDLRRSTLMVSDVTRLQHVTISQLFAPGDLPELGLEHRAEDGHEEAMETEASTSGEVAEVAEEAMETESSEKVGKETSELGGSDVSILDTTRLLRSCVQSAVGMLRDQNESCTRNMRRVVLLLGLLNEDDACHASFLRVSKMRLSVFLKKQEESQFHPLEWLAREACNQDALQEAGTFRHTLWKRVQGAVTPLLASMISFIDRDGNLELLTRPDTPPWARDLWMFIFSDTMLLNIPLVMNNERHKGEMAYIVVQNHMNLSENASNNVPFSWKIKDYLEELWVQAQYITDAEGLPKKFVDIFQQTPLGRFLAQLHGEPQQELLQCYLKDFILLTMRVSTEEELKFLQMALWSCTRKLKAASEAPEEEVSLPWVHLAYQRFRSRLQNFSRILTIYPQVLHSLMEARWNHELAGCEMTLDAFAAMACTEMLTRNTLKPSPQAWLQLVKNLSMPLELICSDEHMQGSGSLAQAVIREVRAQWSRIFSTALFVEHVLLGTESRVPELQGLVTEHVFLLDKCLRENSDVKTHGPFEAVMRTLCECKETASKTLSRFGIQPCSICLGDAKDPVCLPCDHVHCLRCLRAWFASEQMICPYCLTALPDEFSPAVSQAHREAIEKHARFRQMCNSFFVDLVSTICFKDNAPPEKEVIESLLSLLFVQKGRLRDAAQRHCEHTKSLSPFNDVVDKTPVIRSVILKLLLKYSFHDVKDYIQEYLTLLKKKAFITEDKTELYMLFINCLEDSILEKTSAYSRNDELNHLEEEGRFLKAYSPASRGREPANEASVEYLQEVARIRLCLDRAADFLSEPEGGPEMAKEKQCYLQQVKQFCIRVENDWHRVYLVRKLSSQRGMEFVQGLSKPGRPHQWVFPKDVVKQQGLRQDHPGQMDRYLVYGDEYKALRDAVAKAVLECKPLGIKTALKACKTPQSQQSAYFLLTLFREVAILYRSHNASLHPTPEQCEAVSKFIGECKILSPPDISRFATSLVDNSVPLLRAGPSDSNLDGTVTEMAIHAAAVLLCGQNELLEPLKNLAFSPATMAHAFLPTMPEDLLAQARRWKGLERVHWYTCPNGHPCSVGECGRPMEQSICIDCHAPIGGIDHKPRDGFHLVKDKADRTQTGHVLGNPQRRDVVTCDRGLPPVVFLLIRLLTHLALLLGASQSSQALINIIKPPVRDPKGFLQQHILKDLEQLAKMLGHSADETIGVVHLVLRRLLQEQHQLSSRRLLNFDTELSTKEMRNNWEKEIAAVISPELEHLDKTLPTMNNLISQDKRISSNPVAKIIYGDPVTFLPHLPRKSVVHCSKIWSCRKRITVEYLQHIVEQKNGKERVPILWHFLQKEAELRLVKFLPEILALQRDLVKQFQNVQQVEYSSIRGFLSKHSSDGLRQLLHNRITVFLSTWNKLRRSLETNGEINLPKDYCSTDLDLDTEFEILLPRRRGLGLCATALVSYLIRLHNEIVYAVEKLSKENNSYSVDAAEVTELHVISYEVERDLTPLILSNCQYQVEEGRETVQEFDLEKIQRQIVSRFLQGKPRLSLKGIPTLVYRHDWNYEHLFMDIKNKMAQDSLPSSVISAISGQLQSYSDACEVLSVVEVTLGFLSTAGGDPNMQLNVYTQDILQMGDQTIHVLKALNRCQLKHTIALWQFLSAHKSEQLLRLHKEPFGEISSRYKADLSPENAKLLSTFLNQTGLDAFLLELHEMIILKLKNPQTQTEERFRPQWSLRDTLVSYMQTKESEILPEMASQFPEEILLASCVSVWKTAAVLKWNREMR

B1: LZTR1 R810W-FLAG (other, human, UniProt Q8N653 1-840, looked up)
chain: MAGPGSTGGQIGAAALAGGARSKVAPSVDFDHSCSDSVEYLTLNFGPFETVHRWRRLPPCDEFVGARRSKHTVVAYKDAIYVFGGDNGKTMLNDLLRFDVKDCSWCRAFTTGTPPAPRYHHSAVVYGSSMFVFGGYTGDIYSNSNLKNKNDLFEYKFATGQWTEWKIEGRLPVARSAHGATVYSDKLWIFAGYDGNARLNDMWTIGLQDRELTCWEEVAQSGEIPPSCCNFPVAVCRDKMFVFSGQSGAKITNNLFQFEFKDKTWTRIPTEHLLRGSPPPPQRRYGHTMVAFDRHLYVFGGAADNTLPNELHCYDVDFQTWEVVQPSSDSEVGGAEVPERACASEEVPTLTYEERVGFKKSRDVFGLDFGTTSAKQPTQPASELPSGRLFHAAAVISDAMYIFGGTVDNNIRSGEMYRFQFSCYPKCTLHEDYGRLWESRQFCDVEFVLGEKEECVQGHVAIVTARSRWLRRKITQARERLAQKLEQEAAPVPREAPGVAAGGARPPLLHVAIREAEARPFEVLMQFLYTDKIKYPRKGHVEDVLLIMDVYKLALSFQLCRLEQLCRQYIEASVDLQNVLVVCESAARLQLSQLKEHCLNFVVKESHFNQVIMMKEFERLSSPLIVEIVRRKQQPPPRTPLDQPVDIGTSLIQDMKAYLEGAGAEFCDITLLLDGHPRPAHKAILAARSSYFEAMFRSFMPEDGQVNISIGEMVPSRQAFESMLRYIYYGEVNMPPEDSLYLFAAPYYYGFYNNRLQAYCKQNLEMNVTVQNVLQILEAADKTQALDMKRHCLHIIVHQFTKVSKLPTLWSLSQQLLLDIIDSLASHISDKQCAELGADI
notes: Stably expressed in U87 cells by lentivirus; also called LZTR1-FLAG-R810W; LZTR1 RW; not shown: FLAG tag
binds: all assays above
